Consider five molecules from patent US20250019432A1.

The target in assay [1] is human siglec12 (human) (UniProt Q96PQ1). Put plainly: FACS U937.
The target in assay [2] is siglec12 with C-terminal FLAG tag on Expi 293 cells (UniProt Q96PQ1). Description: flow cytometry, transfected Expi 293, 500 nM. A general note: A flow cytometer gives signals particle by particle.
Assay [3] deals with siglec6 with C-terminal FLAG tag on Expi 293 cells (UniProt O43699). Description: flow cytometry, transfected Expi 293, 500 nM.
Assay [4] concerns the target human siglec12 (human) (UniProt Q96PQ1). Description: cell-based or functional assay.

Numbering of substitutions follows the chain as printed.

siglec6 with C-terminal FLAG tag on Expi 293 cells, sequence (O43699 27-453 limits assumed): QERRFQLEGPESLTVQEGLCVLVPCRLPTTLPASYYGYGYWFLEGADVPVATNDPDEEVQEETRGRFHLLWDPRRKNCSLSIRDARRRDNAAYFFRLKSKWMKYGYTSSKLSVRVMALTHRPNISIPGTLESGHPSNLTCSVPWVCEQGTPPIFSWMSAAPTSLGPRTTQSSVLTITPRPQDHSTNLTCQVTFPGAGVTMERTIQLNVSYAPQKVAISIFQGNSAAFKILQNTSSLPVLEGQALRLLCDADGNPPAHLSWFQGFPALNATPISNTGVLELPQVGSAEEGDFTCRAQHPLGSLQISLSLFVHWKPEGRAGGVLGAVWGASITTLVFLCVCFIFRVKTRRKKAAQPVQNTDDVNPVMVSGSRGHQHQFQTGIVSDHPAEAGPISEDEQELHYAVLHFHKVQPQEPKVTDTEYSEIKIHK
siglec12 with C-terminal FLAG tag on Expi 293 cells, sequence (Q96PQ1 19-595): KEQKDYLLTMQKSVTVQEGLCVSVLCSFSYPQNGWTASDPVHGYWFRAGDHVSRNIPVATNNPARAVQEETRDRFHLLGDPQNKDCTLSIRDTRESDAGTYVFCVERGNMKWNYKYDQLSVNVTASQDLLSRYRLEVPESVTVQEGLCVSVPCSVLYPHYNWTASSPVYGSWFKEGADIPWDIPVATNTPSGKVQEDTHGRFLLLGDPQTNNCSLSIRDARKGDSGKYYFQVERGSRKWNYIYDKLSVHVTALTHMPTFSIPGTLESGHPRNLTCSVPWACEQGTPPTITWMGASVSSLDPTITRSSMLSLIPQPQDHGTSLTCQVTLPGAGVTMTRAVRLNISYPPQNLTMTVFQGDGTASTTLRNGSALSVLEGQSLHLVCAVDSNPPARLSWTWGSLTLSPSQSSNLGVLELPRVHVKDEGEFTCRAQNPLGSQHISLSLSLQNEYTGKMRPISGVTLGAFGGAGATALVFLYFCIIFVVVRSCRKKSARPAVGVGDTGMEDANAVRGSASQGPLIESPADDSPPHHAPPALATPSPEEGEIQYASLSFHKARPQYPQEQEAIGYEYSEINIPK

B1: S0040 (antibody, V domains shown)
VH: QVQLVQSGAEVKKPGASVKVSCKASGYTFTSYDINWVRQATGQGLEWMGWMNPNSGNTGYAQNFQGRVTMTRNTSINTAYMELSSLRSEDTAVYYCTRGGPTLVRGVIIRDAFDFWGQGTMVTVSS
VL: EIVMTQSPATLSVSPGERATLSCRASQSVSNSFAWYQQKPGQAPRLLIYGAFTRATGIPARFSGSGSGTEFTLTISSLQSEDFAVYYCQQYKTWPLTFGGGTKVEIKR
In assay [1], B1 displayed a Flow % Gated of 6% and a Flow Fluor MFI of 111.

B2: S0103 (antibody, V domains shown)
VH: B1 VH with N73D, I76V, T97A, T102N
VL: B1 VL with T69I
B2: in assay [1], the Flow % Gated was found to be 2% and the Flow Fluor MFI came to 97.

B3: S0042 (antibody, V domains shown)
VH: QVQLVQSGTEVKKPGASVKVSCKVSGYTLSDLSIHWVRQAPGKGLEWMGGFEPEDGEIIYAQKFQGRVIMTEDTSTDTAYMKLSSLRSEDTAVYYCATDKRYFDWLLSGFDYWGQGTLVTVSS
VL: DIQLTQSPSFLSASVGDRVTITCRASQGISSYLAWYQQKPGKAPKLLIFAASTLQSGVPSRFSGSGSGTEFTLTISSLQPEDFATYYCQRLHSYPRTFGQGTKVEIKRA
B3 returned an MFI in assay [2] of 538. The same molecule yielded an MFI in assay [3] of 25.7. In assay [1], this molecule yielded a Flow % Gated of 4% and a Flow Fluor MFI of 107. In assay [4], the % Internalization at 2 hours, U937 cells worked out at 66%.

B4: S0023 (antibody, V domains shown)
VH: EVQLLESGGGLVQPGGSLRLSCAASGFTFSTFAMSWVRQAPGKGLEWVSTISGGGDSTYYADSVKGRFTISRDNSKNMMSLQMNSLRAVDTAVYYCVKGGGDEYFYYGMDVWGQGTTVTVSS
VL: DIQMTQSPSSLSASVGDRVTITCRASQGIRNDLGWYQQKPGKAPKRLIYSASSLQSGVPSRFSGSGSGTEFTLTISSLQPEDFATYYCLQHNSYPYTFGQGTPLDIKR
B4 returned an MFI in assay [2] of 484. The same molecule had an MFI in assay [3] of 29.3. For the same molecule, in assay [1], the Flow % Gated was 3% and the Flow Fluor MFI was 93. Moreover, the % Internalization at 2 hours, U937 cells in assay [4] worked out at 32%.

B5: S0057 (antibody, V domains shown)
VH: QGQLVQSGAEVKKPGASVKVSCKASGYTFNNYGISWVRQAPGQGLEWMGWISAYNGFTRSTQKFQGRVTLTTDTSTSTAHMELRSLRSDDTAAYYCARDGGDGFDPWGQGTLVTVSS
VL: EIVLTQSPATLSLSPGERATLSCRASQSVSSFLAWYQQKPGQAPRLLIFDASNRATGIPARFSGSGSGTDFTLTISSLEPEDFAVYYCQQRSNWITFGQGTRLEIKRA
Regarding B5, in assay [2], the MFI worked out at 912. In assay [3], this molecule registered an MFI of 29.8. In assay [1], this molecule had a Flow % Gated of 79% and a Flow Fluor MFI of 368. In assay [4], the % Internalization at 2 hours, U937 cells stood at 58%; the MFI of pH sensitive dye, Siglec12 complexes, 0 hours amounted to 20; the MFI of pH sensitive dye, Siglec12 complexes, 4 hours stood at 24.7; the MFI of pH sensitive dye, Siglec12 complexes, 24 hours turned out to be 26.5. Besides, in assay [4], the Siglec12 % surface expression, 0 min came out at 100%; the Siglec12 % surface expression, 15 min was 96%; the Siglec12 % surface expression, 30 min amounted to 84%; the Siglec12 % surface expression, 45 min turned out to be 73%. In assay [4], the Siglec12 % surface expression, 60 min turned out to be 65%; the Siglec12 % surface expression, 90 min worked out at 47%; the Siglec12 % surface expression, 120 min came to 40%.
